Reference: patent publication US20100285597A1, “DETECTION OF FRAGMENTS OF NECTIN-1 FOR THE DIAGNOSIS OF ALZHEIMER'S DISEASE” (UNIVERSITY OF ROCHESTER, priority 2007, published 2010)

How the values were obtained:
BACE1 [1] = biological target: T1, BACE1 (Homo sapiens, UniProt P56817); assay: Co-immunoprecipitation of nectin-1 truncation mutants with BACE1 co-expressed in HEK 293 cells; assay type: binding; conditions: 48 hr. after transfection
T1 construct: expressed in transfected cells; host or cells: HEK 293
T1 sequence (P56817 46-501, species assumed): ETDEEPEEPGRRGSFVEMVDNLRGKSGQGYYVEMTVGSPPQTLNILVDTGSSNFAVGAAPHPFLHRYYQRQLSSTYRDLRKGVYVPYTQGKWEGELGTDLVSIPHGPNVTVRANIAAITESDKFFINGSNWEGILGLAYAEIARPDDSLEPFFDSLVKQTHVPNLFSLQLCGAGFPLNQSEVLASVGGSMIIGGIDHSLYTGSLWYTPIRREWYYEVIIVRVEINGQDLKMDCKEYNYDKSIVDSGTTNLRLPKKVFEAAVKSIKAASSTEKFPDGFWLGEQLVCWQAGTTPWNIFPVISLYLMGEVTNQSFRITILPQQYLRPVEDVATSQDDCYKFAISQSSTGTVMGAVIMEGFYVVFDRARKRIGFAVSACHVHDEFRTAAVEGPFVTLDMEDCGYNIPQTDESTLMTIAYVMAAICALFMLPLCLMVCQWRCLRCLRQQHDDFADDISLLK
Experimental: To define the minimal region within the ectodomain of nectin-1 required for BACE1 interaction, immunoprecipitations between the nectin-1 truncation mutants and BACE1 were performed. BACE1 and full length or truncated nectin-1 were co-expressed in HEK 293 cells and harvested 48 hr. after transfection. To confirm to the efficiencies of the co-transfections, equal volumes of cell lysate were loaded on SDS-PAGE gels and analyzed by Western blot. Transfection efficiency was similar for nectin-1 and its derivates (FIG. 10A) and BACE1 (FIG. 10B). Immunoprecipitation was performed with a nectin-1 cytoplasmic specific antibody and precipitates were analyzed on two separate 10% SDS-PAGE. Western blots were probed with anti-nectin-1 (FIG. 10C) or anti-BACE1 (FIG. 10D) antibodies. The nectin-1 antibody directly immunoprecipitated the respective nectin-1 polypeptides and processed CTFs (FIG. 10C). Furthermore, BACE1, both monomer and dimer, was immunoprecipitated by the nectin-1 antibody, confirming the association of BACE1 with nectin-1.

BACE1 [2] = biological target: T1, BACE1; assay: Co-immunoprecipitation of nectin-1 point mutants with BACE1 co-expressed in HEK 293 cells; assay type: binding; conditions: 48 hr. after transfection
Experimental: To express how these point mutations affect the association of nectin-1 with BACE1, physical association of the mutants was examined by immunoprecipitation. We co-expressed BACE1 and nectin-1 or one of the cleavage refractory point mutants in HEK 293 cells. Cells were harvested and lysed in lysis buffer 48 hr. after transfection. To confirm the co-transfection efficiency of nectin-1 or it derivatives and BACE1, equal volumes of cell lysates were analyzed by 10% SDS-PAGE followed by Western blotting. Transfection efficiencies for nectin-1 and derivatives and BACE1 were similar in each sample (FIG. 12A—nectin-1, FIG. 12B—BACE1). Co-expression of nectin-1 with BACE1 increased the amount of CTF bands compared to nectin-1 alone (FIG. 12A, lanes 3 and 4).
Immunoprecipitation was performed using a C-terminal specific nectin-1 antibody. […] The intensities of nectin-1 CTF bands were much stronger when nectin-1 was co-expressed with BACE1. BACE1 was also detected in nectin-1 complexes (FIG. 12D).

[3] = system: processing of wild type nectin-1; assay: Co-transfection of nectin-1 mutants with wild-type nectin-1 in HEK 293 cells, Western blot of CTF bands; assay type: cell-based; conditions: 0.5 μg wild-type nectin-1 plasmid, 24 hr. post-transfection
Experimental: Mutants T310A and Y311A were tested to see if they would interfere with the processing of wild type nectin-1. HEK 293 cells were co-transfected with 0.5 μg of a plasmid containing wild-type nectin-1 and with a plasmid containing no insert (control), green fluorescent protein (GFP), nectin-1 T310A or nectin-1 Y311A. Co transfection efficiency was approximately 85%. Cells were harvested 24 hr. post-transfection and samples were analyzed on a 12% SDS-PAGE gel. […] Co-transfection with vector alone or GFP had no effect on nectin-1 processing. […] The residual CTF bands detected in the T310A and Y311A samples are likely due to the 15% of the cell population that received only the wild type nectin-1 construct.

Molecule	association with BACE1 (co-immunoprecipitation with nectin-1 antibody) (BACE1 [1])	intensity of BACE1 bands co-precipitated, compared with wild type nectin-1 (BACE1 [2])	production of CTF bands of co-transfected wild type nectin-1 [3]
T310A: T310A point mutant of nectin-1 (protein, listed as Homo sapiens) MARMGLAGAAGRWWGLALGLTAFFLPGVHSQVVQVNDSMYGFIGTDVVLHCSFANPLPSVKITQVTWQKSTNGSKQNVAIYNPSMGVSVLAPYRERVEFLRPSFTDGTIRLSRLELEDEGVYICEFATFPTGNRESQLNLTVMAKPTNWIEGTQAVLRAKKGQDDKVLVATCTSANGKPPSVVSWETRLKGEAEYQEIRNPNGTVTVISRYRLVPSREAHQQSLACIVNYHMDRFKESLTLNVQYEPEVTIEGFDGNWYLQRMDVKLTCKADANPPATEYHWTTLNGSLPKGVEAQNRTLFFKGPINYSLAGAYICEATNPIGTRSGQVEVNITEFPYTPSPPEHGRRAGPVPTAIIGGVAGSILLVLIVVGGIVVALRRRRHTFKGDYSTKKHVYGNGYSKAGIPQHHPPMAQNLQYPDDSDDEKKAGPLGGSSYEEEEEEEEGGGGGERKVGGPHPKYDEDAKRPYFTVDEAEARQDGYGDRTLGYQYDPEQLDLAENMVSQNDGSFISKKEWYV		much greater than that precipitated by wild type nectin-1	substantially reduced
Y311A: Y311A point mutant of nectin-1 (protein, listed as Homo sapiens) MARMGLAGAAGRWWGLALGLTAFFLPGVHSQVVQVNDSMYGFIGTDVVLHCSFANPLPSVKITQVTWQKSTNGSKQNVAIYNPSMGVSVLAPYRERVEFLRPSFTDGTIRLSRLELEDEGVYICEFATFPTGNRESQLNLTVMAKPTNWIEGTQAVLRAKKGQDDKVLVATCTSANGKPPSVVSWETRLKGEAEYQEIRNPNGTVTVISRYRLVPSREAHQQSLACIVNYHMDRFKESLTLNVQYEPEVTIEGFDGNWYLQRMDVKLTCKADANPPATEYHWTTLNGSLPKGVEAQNRTLFFKGPINYSLAGTAICEATNPIGTRSGQVEVNITEFPYTPSPPEHGRRAGPVPTAIIGGVAGSILLVLIVVGGIVVALRRRRHTFKGDYSTKKHVYGNGYSKAGIPQHHPPMAQNLQYPDDSDDEKKAGPLGGSSYEEEEEEEEGGGGGERKVGGPHPKYDEDAKRPYFTVDEAEARQDGYGDRTLGYQYDPEQLDLAENMVSQNDGSFISKKEWYV		much greater than that precipitated by wild type nectin-1	substantially reduced
Δ28-250: nectin-1 ectodomain truncation mutant, V5 and flag tagged (protein, left off: small tags and cut ends, nectin-1 ectodomain truncation mutant, V5 and flag tagged) FDGNWYLQRMDVKLTCKADANPPATEYHWTTLNGSLPKGVEAQNRTLFFKGPINYSLAGTYICEATNPIGTRSGQVEVNITEFPYTPSPPEHGRRAGPVPTAIIGGVAGSILLVLIVVGGIVVALRRRRHTFKGDYSTKKHVYGNGYSKAGIPQHHPPMAQNLQYPDDSDDEKKAGPLGGSSYEEEEEEEEGGGGGERKVGGPHPKYDEDAKRPYFTVDEAEARQDGYGDRTLGYQYDPEQLDLAENMVSQNDGSFISKKEWYV	interacted with BACE1 very strongly		
Δ28-312: nectin-1 ectodomain truncation mutant, V5 and flag tagged (protein, left off: small tags and cut ends, nectin-1 ectodomain truncation mutant, V5 and flag tagged) CEATNPIGTRSGQVEVNITEFPYTPSPPEHGRRAGPVPTAIIGGVAGSILLVLIVVGGIVVALRRRRHTFKGDYSTKKHVYGNGYSKAGIPQHHPPMAQNLQYPDDSDDEKKAGPLGGSSYEEEEEEEEGGGGGERKVGGPHPKYDEDAKRPYFTVDEAEARQDGYGDRTLGYQYDPEQLDLAENMVSQNDGSFISKKEWYV	Association with BACE1 was also detected		
Δ28-300: nectin-1 ectodomain truncation mutant, V5 and flag tagged (protein, left off: small tags and cut ends, nectin-1 ectodomain truncation mutant, V5 and flag tagged) GPINYSLAGTYICEATNPIGTRSGQVEVNITEFPYTPSPPEHGRRAGPVPTAIIGGVAGSILLVLIVVGGIVVALRRRRHTFKGDYSTKKHVYGNGYSKAGIPQHHPPMAQNLQYPDDSDDEKKAGPLGGSSYEEEEEEEEGGGGGERKVGGPHPKYDEDAKRPYFTVDEAEARQDGYGDRTLGYQYDPEQLDLAENMVSQNDGSFISKKEWYV	interacted with BACE1 very strongly		

More lines, main results first:

association with BACE1 (co-immunoprecipitation with nectin-1 antibody) (BACE1 [1])	Molecule	intensity of BACE1 bands co-precipitated, compared with wild type nectin-1 (BACE1 [2])	production of CTF bands of co-transfected wild type nectin-1 [3]
did not associate with BACE1	Δ28-349: nectin-1 ectodomain truncation mutant, V5 and flag tagged (protein, left off: small tags and cut ends, nectin-1 ectodomain truncation mutant, V5 and flag tagged) PTAIIGGVAGSILLVLIVVGGIVVALRRRRHTFKGDYSTKKHVYGNGYSKAGIPQHHPPMAQNLQYPDDSDDEKKAGPLGGSSYEEEEEEEEGGGGGERKVGGPHPKYDEDAKRPYFTVDEAEARQDGYGDRTLGYQYDPEQLDLAENMVSQNDGSFISKKEWYV		
Association with BACE1 was also detected	Δ28-324: nectin-1 ectodomain truncation mutant, V5 and flag tagged (protein, left off: small tags and cut ends, nectin-1 ectodomain truncation mutant, V5 and flag tagged) QVEVNITEFPYTPSPPEHGRRAGPVPTAIIGGVAGSILLVLIVVGGIVVALRRRRHTFKGDYSTKKHVYGNGYSKAGIPQHHPPMAQNLQYPDDSDDEKKAGPLGGSSYEEEEEEEEGGGGGERKVGGPHPKYDEDAKRPYFTVDEAEARQDGYGDRTLGYQYDPEQLDLAENMVSQNDGSFISKKEWYV		
Association with BACE1 was also detected	Δ28-333: nectin-1 ectodomain truncation mutant, V5 and flag tagged (protein, left off: small tags and cut ends, nectin-1 ectodomain truncation mutant, V5 and flag tagged) PYTPSPPEHGRRAGPVPTAIIGGVAGSILLVLIVVGGIVVALRRRRHTFKGDYSTKKHVYGNGYSKAGIPQHHPPMAQNLQYPDDSDDEKKAGPLGGSSYEEEEEEEEGGGGGERKVGGPHPKYDEDAKRPYFTVDEAEARQDGYGDRTLGYQYDPEQLDLAENMVSQNDGSFISKKEWYV		
